T1: Fy-1 (Tbck) (human, UniProt Q8TEA7 1-893)
T1 sequence (looked up): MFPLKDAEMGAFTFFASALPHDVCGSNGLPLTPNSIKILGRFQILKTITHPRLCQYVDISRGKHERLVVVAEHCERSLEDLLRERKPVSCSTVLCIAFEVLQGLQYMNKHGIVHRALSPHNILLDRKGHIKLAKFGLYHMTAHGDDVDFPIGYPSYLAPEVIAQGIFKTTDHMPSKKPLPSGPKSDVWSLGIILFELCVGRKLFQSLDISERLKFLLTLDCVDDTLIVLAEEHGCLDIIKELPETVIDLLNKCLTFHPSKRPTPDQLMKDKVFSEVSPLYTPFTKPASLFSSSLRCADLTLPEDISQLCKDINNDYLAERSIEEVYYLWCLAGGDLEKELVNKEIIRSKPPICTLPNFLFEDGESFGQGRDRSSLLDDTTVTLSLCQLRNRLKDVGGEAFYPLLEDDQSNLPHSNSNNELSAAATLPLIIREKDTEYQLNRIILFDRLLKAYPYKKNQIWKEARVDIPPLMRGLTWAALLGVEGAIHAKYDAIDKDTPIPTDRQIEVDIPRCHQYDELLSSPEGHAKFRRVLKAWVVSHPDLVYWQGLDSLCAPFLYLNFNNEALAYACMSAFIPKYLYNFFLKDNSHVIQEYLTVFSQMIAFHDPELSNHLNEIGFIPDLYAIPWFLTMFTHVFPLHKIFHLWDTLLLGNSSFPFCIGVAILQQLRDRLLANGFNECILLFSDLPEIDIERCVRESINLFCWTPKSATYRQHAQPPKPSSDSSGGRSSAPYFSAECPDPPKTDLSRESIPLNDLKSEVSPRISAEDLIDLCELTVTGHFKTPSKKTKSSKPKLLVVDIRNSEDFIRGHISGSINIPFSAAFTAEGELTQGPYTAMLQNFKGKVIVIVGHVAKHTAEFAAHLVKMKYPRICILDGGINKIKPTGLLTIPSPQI

B1: Fy-2 (Ppp1r21) (natural protein, human, UniProt Q6ZMI0 1-780, looked up)
chain: MASAELQGKYQKLAQEYSKLRAQNQVLKKGVVDEQANSAALKEQLKMKDQSLRKLQQEMDSLTFRNLQLAKRVELLQDELALSEPRGKKNKKSGESSSQLSQEQKSVFDEDLQKKIEENERLHIQFFEADEQHKHVEAELRSRLATLETEAAQHQAVVDGLTRKYMETIEKLQNDKAKLEVKSQTLEKEAKECRLRTEECQLQLKTLHEDLSGRLEESLSIINEKVPFNDTKYSQYNALNVPLHNRRHQLKMRDIAGQALAFVQDLVTALLNFHTYTEQRIQIFPVDSAIDTISPLNQKFSQYLHENASYVRPLEEGMLHLFESITEDTVTVLETTVKLKTFSEHLTSYICFLRKILPYQLKSLEEECESSLCTSALRARNLELSQDMKKMTAVFEKLQTYIALLALPSTEPDGLLRTNYSSVLTNVGAALHGFHDVMKDISKHYSQKAAIEHELPTATQKLITTNDCILSSVVALTNGAGKIASFFSNNLDYFIASLSYGPKAASGFISPLSAECMLQYKKKAAAYMKSLRKPLLESVPYEEALANRRILLSSTESREGLAQQVQQSLEKISKLEQEKEHWMLEAQLAKIKLEKENQRIADKLKNTGSAQLVGLAQENAAVSNTAGQDEATAKAVLEPIQSTSLIGTLTRTSDSEVPDVESREDLIKNHYMARIVELTSQLQLADSKSVHFYAECRALSKRLALAEKSKEALTEEMKLASQNISRLQDELTTTKRSYEDQLSMMSDHLCSMNETLSKQREEIDTLKMSSKGNSKKNKSR

Key:
Fy-2 (Ppp1r21) [1] = biological target: B1; test: HDX-MS
cryo-EM structure = biological target: the molecule itself; test: cryo-EM structure
Fy-1 (Tbck) = biological target: T1, Fy-1 (Tbck); test: HDX-MS
Fy-2 (Ppp1r21) [2] = biological target: B1; test: cryo-EM structure

Row | binding result (Fy-2 (Ppp1r21) [1]) | binding result (Fy-1 (Tbck)) | binding result (Fy-2 (Ppp1r21) [2]) | Binder | stoichiometry N (cryo-EM structure)
1 | binds |  |  | Rab5 (Rab5a), GTPγS loaded (natural protein, human, UniProt P20339 1-215, looked up) MASRGATRPNGPNTGNKICQFKLVLLGESAVGKSSLVLRFVKGQFHEFQESTIGAAFLTQTVCLDDTTVKFEIWDTAGQERYHSLAPMYYRGAQAAIVVYDITNEESFARAKNWVKELQRQASPNIVIALSGNKADLANKRAVDFQEAQSYADDNSLLFMETSAKTSMNVNEIFMAIAKKLPKNEPQNPGANSARGRGVDLTEPTQPTRNQCCSN | 
2 |  | binds |  | B1 | 2
3 |  |  |  | Fy-5 (Gatd1) (natural protein, human, UniProt Q8NB37 1-220, looked up) MASERLPNRPACLLVASGAAEGVSAQSFLHCFTMASTAFNLQVATPGGKAMEFVDVTESNARWVQDFRLKAYASPAKLESIDGARYHALLIPSCPGALTDLASSGSLARILQHFHSESKPICAVGHGVAALCCATNEDRSWVFDSYSLTGPSVCELVRAPGFARLPLVVEDFVKDSGACFSASEPDAVHVVLDRHLVTGQNASSTVPAVQNLLFLCGSRK | 2
4 |  |  | binds | Fy-4 (Cryzl1) (natural protein, human, UniProt O95825 1-349, looked up) MKGLYFQQSSTDEEITFVFQEKEDLPVTEDNFVKLQVKACALSQINTKLLAEMKMKKDLFPVGREIAGIVLDVGSKVSFFQPDDEVVGILPLDSEDPGLCEVVRVHEHYLVHKPEKVTWTEAAGSIRDGVRAYTALHYLSHLSPGKSVLIMDGASAFGTIAIQLAHHRGAKVISTACSLEDKQCLERFRPPIARVIDVSNGKVHVAESCLEETGGLGVDIVLDAGVRLYSKDDEPAVKLQLLPHKHDIITLLGVGGHWVTTEENLQLDPPDSHCLFLKGATLAFLNDEVWNLSNVQQGKYLCILKDVMEKLSTGVFRPQLDEPIPLYEAKVSMEAVQKNQGRKKQVVQF | 2
5 | binds |  |  | Fy-3 (C12orf4) (natural protein, human, UniProt Q9NQ89 1-552, looked up) MKKNRERFCNREREFVYKFKVGSQCLELRVPLKFPVQENASHLHGRLMLLHSLPCFIEKDLKEALTQFIEEESLSDYDRDAEASLAAVKSGEVDLHQLASTWAKAYAETTLEHARPEEPSWDEDFADVYHDLIHSPASETLLNLEHNYFVSISELIGERDVELKKLRERQGIEMEKVMQELGKSLTDQDVNSLAAQHFESQQDLENKWSNELKQSTAIQKQEYQEWVIKLHQDLKNPNNSSLSEEIKVQPSQFRESVEAIGRIYEEQRKLEESFTIHLGAQLKTMHNLRLLRADMLDFCKHKRNHRSGVKLHRLQTALSLYSTSLCGLVLLVDNRINSYSGIKRDFATVCQECTDFHFPRIEEQLEVVQQVVLYARTQRRSKLKESLDSGNQNGGNDDKTKNAERNYLNVLPGEFYITRHSNLSEIHVAFHLCVDDHVKSGNITARDPAIMGLRNILKVCCTHDITTISIPLLLVHDMSEEMTIPWCLRRAELVFKCVKGFMMEMASWDGGISRTVQFLVPQSISEEMFYQLSNMLPQIFRVSSTLTLTSKH | 

Source: article doi:10.1101/2021.06.21.449265 (bioRxiv, 2021)
